According to article PMC8816810:

Target: AMdnB (Anabaena sp. PCC 7120)
Assay: ITC

- Kd: 12.3 µM
B1: AMdnA_(1–24) peptide (truncated AMdnA LP) (peptide)
peptide: MPENRQEDLNAQAVPFFARFLEGQ
